The test system of one data set is O=[N+]([O-])c1ncc[nH]1. The experiment in a line: nitrite release, Griess reaction, Michaelis-Menten plot. The data set is classed as biochemical, Mycobacterium sp. JS330. The note with it: 25-400 µM 2NI, 25 °C, no metal or cofactor. The source says: nitrite release, Griess reaction, Michaelis-Menten plot on NnhA
(In general: Nitrite, measured by Griess reagent, commonly stands in for NO production.)

Data set [1] concerns the molecule itself. The experiment in a line: SEC; Superdex 200 prep column during purification, 20 mM Tris pH 7.5, 50 mM NaCl; molecular weight estimate assumes a globular complex.
Data set [2] deals with the molecule itself. The experiment in a line: crystal structure; crystals in space groups P1 (6 molecules in the asymmetric unit) and H32 (one protomer, hexamer by crystallographic symmetry); grown in polyacrylic acid 5100, MgCl2, HEPES pH 7.2, or PEG 3350 with sodium malonate pH 7.0; data at 100 K.
Where [3] appears, read: 1.1 µM enzyme, soluble variant from directed evolution.

The values below come from publication PMC11659421, “Structural insights into the enzymatic breakdown of azomycin-derived antibiotics by 2-nitroimdazole hydrolase (NnhA)” (Communications Biology, 2024).

Numbering of substitutions follows the chain as printed. Numbers in names are those of the source.

Usually Km stands for the substrate concentration at which the rate is half of its maximum. In general, kcat refers to the number of substrate molecules converted per active site and unit of time at saturation. As a reminder, the kcat/Km is the second-order rate constant that governs catalysis at low substrate concentration. For the molecule NnhA (Mycobacterium sp. JS330), in the data set with O=[N+]([O-])c1ncc[nH]1 (1.1 µM enzyme), the Km was 93.1 ± 14.1 µM, the kcat amounted to 0.0212 ± 0.00267 s⁻¹ and the kcat/Km amounted to 200 M⁻¹ s⁻¹.
With “NnhA (Mycobacterium sp. JS330; C352A/G14D/K73R/T2I)”, in the data set on O=[N+]([O-])c1ncc[nH]1 (3.3 µM enzyme), the Km was 24.5 ± 3.3 µM, the kcat worked out at 0.0122 ± 0.000333 s⁻¹ and the kcat/Km is 500 M⁻¹ s⁻¹.
Take “NnhA (Mycobacterium sp. JS330; G14D/K73R/T2I)”: in the data set with O=[N+]([O-])c1ncc[nH]1 (setting [3]), the Km came to 109.8 ± 7.6 µM, the catalytic constant (kcat) was 0.3 ± 0.007 s⁻¹ and the catalytic efficiency (kcat/Km) worked out at 2730 M⁻¹ s⁻¹.

B1: soluble NnhA (2-nitroimidazole nitrohydrolase A, T2I-G14D-K73R variant) (enzyme)
chain: MITVDKRPSSRGYDDWRLSDIPQYKDGISTYEFVRATHEADYRTHQAEPVAGRTFGFNGIGRLTEVALHMPTRYTLHDQSSQYKESPSFFQGLMGVPDRGPVDLAAFQRETEELATAFENNGIKVHWVDYPEEPANPYGPLMGHVFLSWGSIWRGGSVISRFGFLPGMVGVSEYLAKWAWNTLNIPPLVAITEGAMEPGACNMIADEVLVTCLSASYDQRGTDQLVAAISKTSGTEEFHNLQLRPAVEGFFNKATGACAHPDININAIDVGKLVVSPAALDWDARTWLYDNNFELIEADPDEQREFLAPCNVLLLEPGKVIAHADCHKTNQKIRDAGVEVIEVTGTEIRKACGGIKCRVMQINREPGPTLADVRNRVWR
notes: 2-nitroimidazole nitrohydrolase A (NnhA) of Mycobacterium sp; JS330, UniProt F4ZCI3.1; electron density from R11 to R379 at the C-terminus; Variant found by four rounds of directed evolution (error-prone PCR); also called NnhA-T2I-G14D-K73R; soluble T2I, G14D, K73R NnhA mutant; source: no nickel column; not shown: His6, N-terminal, kept
What is called stoichiometry N is the number of molecules, sites or subunits per partner or assembly. Take B1: the “stoichiometry N” value in data set [1] is roughly 4; in data set [2], 6.

B2: NnhA-T2I-G14D-K73R-C357A (enzyme)
chain: B1 chain with C357A
notes: 2-nitroimidazole nitrohydrolase A (NnhA) of Mycobacterium sp; JS330, UniProt F4ZCI3.1; also called NnhA C357A; source: no nickel column
Turning to B2, the “stoichiometry N” value in data set [2] was 6.
